Assay results: patent publication US20200316233A1 (BOARD OF REGENTS OF THE UNIVERISTY OF NEBRASKA, published 2020)
Square brackets hold non-standard residues; d marks the D form. Ends that are not written are not given here.

Experiments:
[1] = target: T1, neurotensin receptor-1 (human, UniProt P30989 1-418); assay: competition with 177Lu-N1 on HT-29 cells
T1 construct: whole, on cells; Endogenous receptor on the NTSR1-positive HT-29 human colon cancer cell line; also called NTR1; NTSR1
Description: (§1) The IC₅₀ for the unlabeled conjugates binding to the neurotensin receptors was determined using the HT-29 human colon cancer cell line. In these studies, ¹⁷⁷Lu-N1 (¹⁷⁷Lu-DOTA-β-Ala-[N-α-Me⁸, Dmt¹¹, Tle¹²]NT(6-13)), which was synthesized according to published methods (Jia, et al. (2015) Nucl. Med. Biol., 42:816), served as the competitive radioligand for comparing the relative binding affinities of the conjugates. […] At the end of the incubation, the cells were centrifuged, aspirated, and washed with fresh medium (5×500 μL). The cell-associated radioactivity was measured using gamma counter and the IC₅₀ values determined by nonlinear regression using GraphPad Prism 5. All measurements were in biological triplicate.

[2] = target: T1, neurotensin receptor-1; assay: competitive binding to NTR1
Description: as §1

T1 sequence (P30989 whole entry): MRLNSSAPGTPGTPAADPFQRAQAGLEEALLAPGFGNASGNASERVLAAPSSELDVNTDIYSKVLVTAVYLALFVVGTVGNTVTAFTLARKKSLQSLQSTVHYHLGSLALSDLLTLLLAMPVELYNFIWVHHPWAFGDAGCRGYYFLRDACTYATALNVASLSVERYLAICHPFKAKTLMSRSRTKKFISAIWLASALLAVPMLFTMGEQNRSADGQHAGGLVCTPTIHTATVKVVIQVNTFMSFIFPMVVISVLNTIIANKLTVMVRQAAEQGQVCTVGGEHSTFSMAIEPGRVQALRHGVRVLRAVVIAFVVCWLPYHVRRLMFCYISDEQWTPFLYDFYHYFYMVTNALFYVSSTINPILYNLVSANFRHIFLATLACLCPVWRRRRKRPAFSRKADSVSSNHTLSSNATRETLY

IC50 [1] [nM] | IC50 [2] [nM] | Binder
49 |  | KPRRPYIL (not fully specified; also: N-terminal DOTA, X linker PEG3, Y linker β-Ala, N-Me-Arg, Dmt, Tle building blocks, places not given here, matched control of 2c; also called compound 3a) [3a]
 | 63 | KPRRPYIL (not fully specified; also: DOTA on the peptide, linkers and non-natural residues not given here) [Ec]
52 |  | [dS][dS][dS]KPRRPYIL (not fully specified; also: N-terminal DOTA, X linker Gly-(D)Ser3, N-Me-Arg, Dmt, Tle building blocks, places not given here, matched control of 2f; also called compound 3b) [3b]
